Target: mouse hemoglobin (mouse) (UniProt P01942)
Experiment: BLI

## recombinant IsdB (from UniProt A6QG30 41-613) (receptor)
  Kd: 980 nM

Source: publication PMC3032424
